Experimental data reported in patent US20230381130A1 (ATRECA, published 2023).
Numbering of substitutions follows the chain as printed.

B1: AIP-169752 (antibody, V domains shown)
VH: EVQLVESGGALVKPGGSLRLSCAASGFTFSKAWMSWVRQAPGKGLEWVGRIKSVTDGETTDYAAPVKGRFTISRDDSKSTLYLQMNSLKTEDTAVYYCTSSFCCRGGGSCPSHDTSYCGGQYKSYYYMDVWGKGTTVTVSS
VL: QSVLTQPPSASGTPGQRVTISCSGSSSNIGSSSVSWYQQLPGTAPKLLIYKNNQRPSGVPDRFSGSKSGTSASLAISGLRSEDEADYYCSTWDDSLSVRVFGGGTKLTVL
B2: AIP-125646 (antibody, V domains shown)
VH: EVQLVESGGALVKPGGSLRLSCAASGFTFSKAWMSWVRQAPGKGLEWVGRIKSVTDGETTDYAAPVKGRFTISRDDSKSTLYLQMNSLKTEDTAVYYCTSSFCCRGGSCPSHDTSYCGQYKSYYYMDVWGKGTTVTVSS
VL: B1 VL
B3: AIP-163723 (antibody, V domains shown)
VH: B2 VH with Q119G, Y120Q
VL: B1 VL
B4: AIP-114111 (antibody, V domains shown)
VH: EVQLVESGGALVKPGGSLRLSCAASGFTFSKAWMSWVRQAPGKGLEWVGRIKSVTDGETTDYAAPVKGRFTISRDDSKSTLYLQMNSLKTEDTAVYYCTSSFCCRGGSCPSHDTSYCGGQYKSSYYYMDVWGKGTTVTVSS
VL: B1 VL
B5: AIP-145328 (antibody, V domains shown)
VH: EVQLVESGGALVKPGGSLRLSCAASGFTFSKAWMSWVRQAPGKGLEWVGRIKSVTDGETTDYAAPVKGRFTISRDDSKSTLYLQMNSLKTEDTAVYYCTSSFCCRGGSGGSCPSHDTSYCGGQYKSYYYMDVWGKGTTVTVSS
VL: B1 VL
B6: AIP-107388 (antibody, V domains shown)
VH: B4 VH with Q120G, Y121Q, K122Y, S123K
VL: B1 VL
B7: AIP-131762 (antibody, V domains shown)
VH: EVQLVESGGALVKPGGSLRLSCAASGFTFSKAWMSWVRQAPGKGLEWVGRIKSVTDGETTDYAAPVKGRFTISRDDSKSTLYLQMNSLKTEDTAVYYCTSSFCGGPSHDTSYCGGQYKSYYYMDVWGKGTTVTVSS
VL: B1 VL
B8: AIP-167295 (antibody, V domains shown)
VH: B2 VH with Q119G, Y120Q, K121Y
VL: B1 VL
B9: AIP-191692 (antibody, V domains shown)
VH: EVQLVESGGALVKPGGSLRLSCAASGFTFSKAWMSWVRQAPGKGLEWVGRIKSVTDGETTDYAAPVKGRFTISRDDSKSTLYLQMNSLKTEDTAVYYCTSSFCCRGGSCPSHDTSYCGGGSGYKSYYYMDVWGKGTTVTVSS
VL: B1 VL
B10: AIP-194564 (antibody, V domains shown)
VH: B1 VH with G106S
VL: B1 VL
B11: AIP-182606 (antibody, V domains shown)
VH: B2 VH with C103S, C117G
VL: B1 VL
B12: AIP-185680 (antibody, V domains shown)
VH: EVQLVESGGALVKPGGSLRLSCAASGFTFSKAWMSWVRQAPGKGLEWVGRIKSVTDGETTDYAAPVKGRFTISRDDSKSTLYLQMNSLKTEDTAVYYCTSSFCCRGGGGSCPSHDTSYCGGQYKSYYYMDVWGKGTTVTVSS
VL: B1 VL

Target: T1, human FcγRIIa-H (the high-affinity H131 variant) (human, UniProt P12318 34-317)
T1 sequence (looked up): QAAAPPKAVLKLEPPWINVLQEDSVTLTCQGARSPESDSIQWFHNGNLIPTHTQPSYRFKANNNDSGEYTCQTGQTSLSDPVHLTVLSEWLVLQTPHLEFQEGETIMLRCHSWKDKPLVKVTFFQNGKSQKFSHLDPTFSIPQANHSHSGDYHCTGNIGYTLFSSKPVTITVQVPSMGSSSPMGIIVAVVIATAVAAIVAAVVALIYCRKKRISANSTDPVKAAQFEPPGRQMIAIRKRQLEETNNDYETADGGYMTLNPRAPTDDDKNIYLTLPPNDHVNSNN
Assay: cell-based or functional assay

| Binder | Avg ΔActivity Rank | EC50 | Fold ΔActivity |
| --- | --- | --- | --- |
| B1 | 2 |  |  |
| B2 | 2.5 | 446 nM | 0.75 |
| B3 | 2 |  |  |
| B4 | 2 | 258 nM | 0.55 |
| B5 | 2 |  |  |
| B6 | 2 |  |  |
| B7 | 1 |  |  |
| B8 | 2 |  |  |
| B9 | 2 |  |  |
| B10 | 2 | 472 nM | 0.58 |
| B11 | 2 |  |  |
| B12 | 1 |  |  |
